Measured values as given in FireProtDB (doi:10.1021/bi052091o).
Where “and” joins values, the source holds several entries; their conditions need not be identical. Identical values can stand only once.

B1: Fatty acid-binding protein, intestinal, P02693 (parent)
chain: MAFDGTWKVDRNENYEKFMEKMGINVVKRKLGAHDNLKLTITQEGNKFTVKESSNFRNIDVVFELGVDFAYSLADGTELTGTWTMEGNKLVGKFKRVDNGKELIAVREISGNELIQTYTYEGVEAKRIFKKE

Variants of: B1
Conditions: Rattus norvegicus; pH 7; 25 °C; Urea; Fluorescence; NaPO4 25 mM; NaCl 75 mM; structure 1IFB; whole UniProt chain shown

Variant	ddG of mutation (higher = less stable)	denaturant m value	denaturant midpoint (higher = more stable)	unfolding free energy
MAFDGTWKVDRNENYEKFMEKMGINVVKRKLGAHDNLKLTITQEGNKFTVKESSNFRNIDVVFELGVDFAYSLADGTELTGTYTMEGNKLVGKFKRVDNGKELIAVREISGNELIQTYTYEGVEAKRIFKKE [W83Y]	-0.09 kcal/mol	1.38 kcal/mol/M and 1.1 kcal/mol/M	3.54 M and 3.6 M	4.88 kcal/mol and 3.99 kcal/mol
MAFDGTWKVDRNENYEKFMEKMGINVVKRKLGAHDNLKLTITQEGNKFTVKESSNFRNIDVVFELGVDFAYSLADGTELTGTWTMEGNKLVGKAKRVDNGKELIAVREISGNELIQTYTYEGVEAKRIFKKE [F94A]	2.42 kcal/mol	1.3 kcal/mol/M and 0.77 kcal/mol/M	1.83 M and 2.53 M	2.37 kcal/mol and 1.94 kcal/mol
MAFDGTWKVDRNENYEKFMEKMGINVVKRKLGAHDNLKLTITQEGNKFTVKESSNFRNIDVVFELGVDAAYSLADGTELTGTWTMEGNKLVGKFKRVDNGKELIAVREISGNELIQTYTYEGVEAKRIFKKE [F69A]	-1.38 kcal/mol	1.76 kcal/mol/M	3.52 M	6.17 kcal/mol
MAFDGTYKVDRNENYEKFMEKMGINVVKRKLGAHDNLKLTITQEGNKFTVKESSNFRNIDVVFELGVDFAYSLADGTELTGTWTMEGNKLVGKFKRVDNGKELIAVREISGNELIQTYTYEGVEAKRIFKKE [W7Y]	0.93 kcal/mol	1.09 kcal/mol/M and 0.77 kcal/mol/M	3.52 M and 3.8 M	3.86 kcal/mol and 2.93 kcal/mol
